Assay results taken from the nanobody polyreactivity screen of Harvey et al. (2022).

Assay: yeast display, Sf9 membrane polyspecificity reagent, FACS + sequencing; frameworks hold sequencing errors
In short: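 A nanobody's polyreactivity label depends on the gate it was sorted from. Yeast display cells were stained with 10% biotinylated, detergent-solubilized Sf9 membrane reagent for 1 hour at 4 °C, enriched on streptavidin microbeads and sorted by FACS. The low and high (top ~1%) gates were set on anti-HA fluorescence for expression and streptavidin fluorescence for reagent binding.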

Row | Sequence | polyreactivity (PSR sort gate)
1 | QVLLVESGGGLVQAGGSLRLSCAASGRTFYNYSMGWYRQAPGKERELVAAISGGGTTNYADTVKGRFTISRDNAKNTVYLQMNSLKPEDTAVYSCNAARTRWATGYDYWGQGTQVTVSS | low polyreactivity
2 | QVQLVESGGGLVQAGGSLRLSCAASGFIFSSYAMGWYRQAPGKERELVAAISRSGGRTNYADSVKGRFTISRDNAKNTVYLQMNSLKPDDTAVYYCNARGRGKYPPYGYDYWGQGTQVTVSS | high polyreactivity
3 | QVQLVESGGGLVQAGGSLRLSCAASGSTFSPYAMGWYRQAPGKERELVAAIRRGGSTNYADSVKGRFTISRDNAKNTVYLQMNSLKPEDTAVYYCAATKRRFVKFDYWGQGTQVTVSS | low polyreactivity
4 | QVQLVESGGGLVQAGGSLRLSCAASGYTFDAYAMGWYRQAHGKERELVAAINYSGGSTYADSVKGRFTISRDNAKNTVYLQMNSLKPEDTAVYYCATRLYGYWPNGFDYWGQGTQVTVSS | low polyreactivity
5 | QVQLVESGGGLVQAGGSLRLSCAASGSIFQYNAMGWYRQAPGKERELVAVISRSGSRTYYADSVKGRFTISRDNAKNTVYLQMNSLKPEDTAVYYCAAPFTSIGARDYYYWGQGTQVTVSS | high polyreactivity
6 | QVQLVESGGGLVQEGGSLRLSCAASGITFDNYDMGWYRQAPGKERELVAAISSDDNTTYADSVKGRFTISRDNAMNTVYFQMNSLKTDDTAVYYCAADYRIYGYLEYDYWGQGTQVTVSS | low polyreactivity
7 | QVQLVESGGGLVQAGGSLRLSCAASGRIFYGYAMGWYRQAPGKERELVAAIRTSGGSTYYADSVKGRFTISRDNAKNTVYLQMNSLKPEDTAVYYCNAGIVPRNRYYTPYNYWGQGTQVTVSS | low polyreactivity
8 | QVQLEESGGGIVQAGGSLRLSCAASGITFRFYAMGWYRPAPGKERELVAAITRSGSSTYYADSVKGRFTISRDNAKNTVYLQMNSLKPEDTAVYYCATDPYWNRPYVKYDYWGQGTLVTVSS | high polyreactivity
9 | QVQLVESGGGLVQAGGSLRLSCAASGRIFYTNAMGWSRQAPGKERELVAVISWGGDTTYYADSVKGRFTISRDNAKNTVYLQMNSLKPEDTAVYYCNADWGPTYEIYDSWGQGTQVTVSS | low polyreactivity
10 | QFQLEESGGGLVQAGGSIRLSCAASGFILDSYGMGWYRQAPGTERELVAAISQSDVSTYYADSVNGRYTISRDNAKNTVYLHMNSLKPEDTAVYYCAADRGGLRWFWQVLFDYWGQGTQVTVSS | low polyreactivity
11 | QVQLVESGGGLVQAGGSLRLSCAASGRIFSVNVMVWYRQAPGKERELVAAITWSVGSTYYADSVKARFTISRDNAKYTVSLQMYSLKPEDTAVYYSAARVPPVYGRVGGYHYWGQGTQVTVSS | low polyreactivity
12 | QVQLVESGGGLVQAGGSLRLSCAASGRTLGGYAMGWYRQAPGKERELVASITARGGSTYYADSVKGRFTISRDNAKNTVYLQMNSLKPEDTAVYYCNKRTRRTYDYWGQGTQVTVSS | high polyreactivity
13 | QVQLVESGGGLVQAGGSLRLSCAASGIIFSYYTMGWYRQEPGKEREVVAAISARGGRTYYADSVKGRFTISRDNAKNTVYLQMNSLKPEDTAVYYCAASWSTEYYWGQGTQVTVSS | high polyreactivity
14 | QVQLVESGGGLVQAGGSLRLICAASGITLWTYAMGWYRQAPGKERELVAAIRRGGSTYYADSVKGRFTISRDNAKYTVFLQMNSLKPEDTAVYYCNTVSFYPYYYWGQGTQVTVSS | high polyreactivity
15 | QVQLVESAGGLVQAGGSLRITCAASASTYSWYTMGWYREAPGKERELVASINYSGTNTYYADSVKGRFTISRDNAKNTVYLQMNSLNPEDTAVYYCAARPRTKLTAYNYCGQGTQVTVSS | high polyreactivity
16 | QVQLVESGGRLVQAGGSLRLSCAASGFTFSSYAMGWYRQAPGKERELVAAISTRCGSTYYADSVKGRFTISRDNAKNTVYLQMNSLKPEDTAVYYCATGCRGGRRYEYWGQGTQVTVSS | low polyreactivity

Row | Sequence | polyreactivity (PSR sort gate)
17 | QVQLVESGGGLVQAGGSLRLSCAASGSTFPWYAMGWYRQAPGKEREVVAAISSSGGSTYYADSVKGRFTISRDKAKNTVYLQMNSLKPEDTAVYYCNAQHPGYYWGYDYWGQGTQVTVSS | high polyreactivity
18 | QVQLVESGGGLVQAGGSLRLSCAASGITFYYYAMGWYRQAPGKERELVAAISDNGSRTYYADSVKGRFTISRDNAKNTVYLQMNSLKPEDTAVYYCAAEGSYGYDYWGQGTQVTVSS | high polyreactivity
19 | QVQLVESGGGLVQAGGSLRLSCADSGGTFGYYVMGWNRQAPGKERELVAAITSGGSTKYADSVKGRFTISRDNAKNTVYLQMNSLKPEDTAVYYCAADYPYYPFSSIYDYWGQGTQVTVSS | low polyreactivity
20 | QVQLVESGGGLVQAGGSLRLSCAASGSTFRWYAMGWYRQAPGKERELVAAITWSGGRTYYADSVKGRFTISRDNAKNTVYLQMNSLKPEDTAVYYCAADRGPEHWYDYYYWGQGTQVTVSS | high polyreactivity
21 | QVQLVESGGGLVQAGGSLRLSCAASGSTFPGNAMGWYRQAPGKERELVAAITSTGTTYYADSVKGRFTISRDNAKNTVYLQMNSLKPEDTAVYYCNADPSPDPSTFDYWGQGTQVTVSS | low polyreactivity
22 | QVQLVESGGGLVQAGGSLRLSCAASGRIVSRYAMGCYRQAPGKERELVADISSSGGSTYYADSVKGRFTISRDNAKNTVYLQMNSMKPEDTAVYDCAVRKKRQYTGDYWGQGTQETVSS | high polyreactivity
23 | QVQLVESGGGLVQAGGSLRLSCAASGFTFDGYGMGWYRHAPGKERELVAVITSGGSTKYADSVKGRFTISRDNAKNTVYLQMNSLKPEDTAVYYCNVVGGRPNPYYDEMDYWGQGPQVTVSS | low polyreactivity
24 | QVQLVESGGGLVQAGCSLRLSCAASGRTFLLYAMGWYRQAPGKERELVAAITWGGGSTYYADSVKGRFTISRDNAKNIVYLQMNCLKPEDTAVYYCNAYYWSRMDYWGQGTQVTVSS | low polyreactivity
25 | QVQLVESGGGLVQAGGSLRLICAASGYIFYKNAMGWYRQAPGKERELVASITGTGGSTYYADSVKGRFTISRDNAKNTVYLQMNSLKPEDTAVYYCAADYTPWDPVSHWGQGTQVTVSS | low polyreactivity
26 | QVQLVESVGGLVQAGGSLPLSGAASGSILGFNAMGWSRQAPGKDRELVASITTSGGSTYFADSVKGRFTISRDNAKNTVYLQMNSLKPEDTAVYYCAAYRRYQFVTYYYWGQGTQVTVSS | high polyreactivity
27 | QVQLVESGGGLVQAGGSLRLSCAASGSTFVYNAMGWYRQAPGKEREFVAVINWSGGRTYADSVKGRFTISRDNAKNTVYLQMNSLKPEDTAVYYCNARRRTGYRPAMDYWGQGTQVTVSS | high polyreactivity
28 | QVQLVESGGGIVQAGGSLRLSCAASGSTFAYYAIGWYRQAPGKEREFVATITWTGGSTNYADSETGRFTISRDNAKNSVYLQMNSLKPEATAVYYSAASFVISYDYWGQGTQVTVSS | high polyreactivity
29 | QGQLEDSGGGLVQAGGSLRLSCAASGLTYDHNAMGWYRNATGKEREFFAVISWRGTSTYYADSVKGRFTISRDNAKNTVFLQMHSLKPEDTAVYYCATRYYGDDVYRYDHWGQGTQVTVSS | high polyreactivity
30 | QVQLVESGGGLVQAGGSLRLRSASSGYILFAYAMVWYRQAPGKERELVATISNYGGITYYAESVKGRFTISRDNAKNTVYLQMNRLKPEDNAVYYCAAAEAGGLVTYDYWGQGTQVTVSS | low polyreactivity
31 | QVQLVESGGGLVQSGGSLRLSCAASGSTVTQYVMGWYRQAPGKERELVAAISDSGSTYYADSVKGRFTISRDKAKNTVYLQMNSLKPEDTAVYYCAAAAPYHGLLYEGDYGGQGTQVTVSS | low polyreactivity
32 | QVQLVESGGGLVQAGGSLRLSCAASGSIFRRYAMGWYRQAPGKERELVAAISWRGDSTYYADSVKGRFTISRDNAKNTVYLQMNSLKPEDTAVYYCNSLIGANPLCYAARYDYWGQGTQVTVSS | low polyreactivity
